# Reference: IntAct's records for PubMed 9428768
# B1: Cell division control protein 24 (Saccharomyces cerevisiae), P11433 (parent)
# chain: MAIQTRFASGTSLSDLKPKPSATSISIPMQNVMNKPVTEQDSLFHICANIRKRLEVLPQLKPFLQLAYQSSEVLSERQSLLLSQKQHQELLKSNGANRDSSDLAPTLRSSSISTATSLMSMEGISYTNSNPSATPNMEDTLLTFSMGILPITMDCDPVTQLSQLFQQGAPLCILFNSVKPQFKLPVIASDDLKVCKKSIYDFILGCKKHFAFNDEELFTISDVFANSTSQLVKVLEVVETLMNSSPTIFPSKSKTQQIMNAENQHRHQPQQSSKKHNEYVKIIKEFVATERKYVHDLEILDKYRQQLLDSNLITSEELYMLFPNLGDAIDFQRRFLISLEINALVEPSKQRIGALFMHSKHFFKLYEPWSIGQNAAIEFLSSTLHKMRVDESQRFIINNKLELQSFLYKPVQRLCRYPLLVKELLAESSDDNNTKELEAALDISKNIARSINENQRRTENHQVVKKLYGRVVNWKGYRISKFGELLYFDKVFISTTNSSSEPEREFEVYLFEKIIILFSEVVTKKSASSLILKKKSSTSASISASNITDNNGSPHHSYHKRHSNSSSSNNIHLSSSSAAAIIHSSTNSSDNNSNNSSSSSLFKLSANEPKLDLRGRIMIMNLNQIIPQNNRSLNITWESIKEQGNFLLKFKNEETRDNWSSCLQQLIHDLKNEQFKARHHSSTSTTSSTAKSSSMMSPTTTMNTPNHHNSRQTHDSMASFSSSHMKRVSDVLPKRRTTSSSFESEIKSISENFKNSIPESSILFRISYNNNSNNTSSSEIFTLLVEKVWNFDDLIMAINSKISNTHNNNISPITKIKYQDEDGDFVVLGSDEDWNVAKEMLAENNEKFLNIRLY
# partner: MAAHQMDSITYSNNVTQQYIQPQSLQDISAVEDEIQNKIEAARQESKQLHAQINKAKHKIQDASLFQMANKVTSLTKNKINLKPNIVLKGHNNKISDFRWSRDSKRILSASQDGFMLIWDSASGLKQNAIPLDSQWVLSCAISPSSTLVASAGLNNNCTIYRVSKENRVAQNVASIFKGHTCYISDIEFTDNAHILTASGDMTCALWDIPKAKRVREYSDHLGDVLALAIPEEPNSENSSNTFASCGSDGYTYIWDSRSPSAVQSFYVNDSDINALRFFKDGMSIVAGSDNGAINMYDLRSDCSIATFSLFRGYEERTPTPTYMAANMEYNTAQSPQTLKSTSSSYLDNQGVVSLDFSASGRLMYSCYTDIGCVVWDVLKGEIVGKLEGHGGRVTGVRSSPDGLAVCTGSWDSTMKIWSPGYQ
# Variants of: B1
# Details: with gbb_yeast STE4, P18851
row,effect of a mutation on the interaction,Variant
1,disrupting interaction,S189F
